One molecule from publication doi:10.1101/2022.06.13.496020 (bioRxiv, 2022) can be followed below.

This experiment concerns the target TSH β-subunit (human, UniProt P01222 21-132, N-linked glycan (one)). Put plainly: cryo-EM structure.

Sequence of TSH β-subunit (P01222 21-132): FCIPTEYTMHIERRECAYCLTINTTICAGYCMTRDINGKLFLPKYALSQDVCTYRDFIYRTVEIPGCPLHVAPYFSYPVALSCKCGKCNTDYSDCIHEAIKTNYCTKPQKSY

B1: TSH α-subunit (natural protein)
chain: not shown
modifications: N-linked glycans (two, one at N52)
For the molecule B1, the binding result was “binds”.
